According to patent US12630596B2, “Engineered lysin-human defensin protein” (priority 2018, dated 2026):
Values after ≈ are worked out from the molar mass of the structure shown. Like-named read-outs stand apart in the source and are kept apart here.

B1: LCD: Catalytic domain (179 aa) of the lysin of C. difficile phage phiC2; SEQ ID NO:2; included as a control (protein)
chain: MKICITVGHSILKSGACTSADGVVNEYQYNKSLAPVLADTFRKEGHKVDVIICPEKQFKTKNEEKSYKIPRVNSGGYDLLIELHLNASNGQGKGSEVLYYSNKGLEYATRICDKLGTVFKNRGAKLDKRLYILNSSKPTAVLIESFFCDNKEDYDKAKKLGHEGIAKLIVEGVLNKNIN
notes: Catalytic domain (179 aa) of the lysin of C. difficile phage phiC2; included as a control

Columns and labels:
[1] = tested on: C. difficile R20291; assay: Minimum inhibitory concentration (MIC) on strain R20291; assay type: cell-based, Clostridium difficile; conditions: strain R20291, BHIS, 37° C. for 18 h
Experimental: The minimum inhibitory concentrations (MICs) of LHD and LCD were determined using the protocol of Wiegand, et al. (Wiegand, Hilpert et al. 2008) with some modifications, as described previously (Gilmer, Schmitz et al. 2017). In brief, strain R20291 was grown in BHIS and adjusted to ˜5×10^5 cells/ml in BHIS, and distributed into the wells of a 96-well round bottom polystyrene microtiter plate. In the wells of each row, either sterile-filtered lysin or control vehicle (metronidazole, vancomycin and fidaxomicin) was added with a final concertation varied from 200 μg/ml to 0.19 μg/ml (2-fold dilution) (Wiegand, Hilpert et al. 2008). The plates were incubated at 37° C. for 18 h. The MIC was “the lowest or minimum concentration of lysin or control vehicle that prevented the formation of a cell pellet (a measure of growth) on the bottom of the wells” (Gilmer, Schmitz et al. 2017). The MICs were also confirmed by measuring the OD600 values using a Bio-Rad plate reader (Bio-Rad, Hercules, CA).

[2] = tested on: C. difficile R20291; assay: Optical drop assay, lytic activity on C. difficile R20291; assay type: cell-based, Clostridium difficile; conditions: strain R20291, 200 μg/ml
Experimental: (§1) The lytic activity of proteins LHD and LCD against C. difficile strains was determined as previously described (Wang, Euler et al. 2015). Briefly, C. difficile strains were cultured in an anaerobic chamber to mid-log phase, and the bacterial pellets were harvested by centrifugation at 3000×g for 5 min. Pellets were washed twice and re-suspended in sterilized ddH2O, and resuspensions were not buffered. Prior to tests, bacterial optical density at 600 nm (OD600) was adjusted to approximately 0.8-1.0. Proteins LHD and LCD were added into the cell re-suspension with the final concentration of 200 μg/ml. The drop in OD600 at 37° C. was measured every 10 minutes for 60 min˜90 min. Bacterial re-suspension with sterilized water was also set as a control. Three repeats were included in each test.

[3] = target: Clostridium difficile toxin B (TcdB) (Clostridioides difficile, UniProt P18177); assay: Inhibition of TcdB cytotoxicity in CT26 cells (cell rounding, non-glucosylated Rac1 Western blot); assay type: cell-based; conditions: pre-treatment 750 ng/ml 1 hr, TcdB 15 ng/ml 5 hrs
Clostridium difficile toxin B (TcdB), sequence (P18177 whole entry): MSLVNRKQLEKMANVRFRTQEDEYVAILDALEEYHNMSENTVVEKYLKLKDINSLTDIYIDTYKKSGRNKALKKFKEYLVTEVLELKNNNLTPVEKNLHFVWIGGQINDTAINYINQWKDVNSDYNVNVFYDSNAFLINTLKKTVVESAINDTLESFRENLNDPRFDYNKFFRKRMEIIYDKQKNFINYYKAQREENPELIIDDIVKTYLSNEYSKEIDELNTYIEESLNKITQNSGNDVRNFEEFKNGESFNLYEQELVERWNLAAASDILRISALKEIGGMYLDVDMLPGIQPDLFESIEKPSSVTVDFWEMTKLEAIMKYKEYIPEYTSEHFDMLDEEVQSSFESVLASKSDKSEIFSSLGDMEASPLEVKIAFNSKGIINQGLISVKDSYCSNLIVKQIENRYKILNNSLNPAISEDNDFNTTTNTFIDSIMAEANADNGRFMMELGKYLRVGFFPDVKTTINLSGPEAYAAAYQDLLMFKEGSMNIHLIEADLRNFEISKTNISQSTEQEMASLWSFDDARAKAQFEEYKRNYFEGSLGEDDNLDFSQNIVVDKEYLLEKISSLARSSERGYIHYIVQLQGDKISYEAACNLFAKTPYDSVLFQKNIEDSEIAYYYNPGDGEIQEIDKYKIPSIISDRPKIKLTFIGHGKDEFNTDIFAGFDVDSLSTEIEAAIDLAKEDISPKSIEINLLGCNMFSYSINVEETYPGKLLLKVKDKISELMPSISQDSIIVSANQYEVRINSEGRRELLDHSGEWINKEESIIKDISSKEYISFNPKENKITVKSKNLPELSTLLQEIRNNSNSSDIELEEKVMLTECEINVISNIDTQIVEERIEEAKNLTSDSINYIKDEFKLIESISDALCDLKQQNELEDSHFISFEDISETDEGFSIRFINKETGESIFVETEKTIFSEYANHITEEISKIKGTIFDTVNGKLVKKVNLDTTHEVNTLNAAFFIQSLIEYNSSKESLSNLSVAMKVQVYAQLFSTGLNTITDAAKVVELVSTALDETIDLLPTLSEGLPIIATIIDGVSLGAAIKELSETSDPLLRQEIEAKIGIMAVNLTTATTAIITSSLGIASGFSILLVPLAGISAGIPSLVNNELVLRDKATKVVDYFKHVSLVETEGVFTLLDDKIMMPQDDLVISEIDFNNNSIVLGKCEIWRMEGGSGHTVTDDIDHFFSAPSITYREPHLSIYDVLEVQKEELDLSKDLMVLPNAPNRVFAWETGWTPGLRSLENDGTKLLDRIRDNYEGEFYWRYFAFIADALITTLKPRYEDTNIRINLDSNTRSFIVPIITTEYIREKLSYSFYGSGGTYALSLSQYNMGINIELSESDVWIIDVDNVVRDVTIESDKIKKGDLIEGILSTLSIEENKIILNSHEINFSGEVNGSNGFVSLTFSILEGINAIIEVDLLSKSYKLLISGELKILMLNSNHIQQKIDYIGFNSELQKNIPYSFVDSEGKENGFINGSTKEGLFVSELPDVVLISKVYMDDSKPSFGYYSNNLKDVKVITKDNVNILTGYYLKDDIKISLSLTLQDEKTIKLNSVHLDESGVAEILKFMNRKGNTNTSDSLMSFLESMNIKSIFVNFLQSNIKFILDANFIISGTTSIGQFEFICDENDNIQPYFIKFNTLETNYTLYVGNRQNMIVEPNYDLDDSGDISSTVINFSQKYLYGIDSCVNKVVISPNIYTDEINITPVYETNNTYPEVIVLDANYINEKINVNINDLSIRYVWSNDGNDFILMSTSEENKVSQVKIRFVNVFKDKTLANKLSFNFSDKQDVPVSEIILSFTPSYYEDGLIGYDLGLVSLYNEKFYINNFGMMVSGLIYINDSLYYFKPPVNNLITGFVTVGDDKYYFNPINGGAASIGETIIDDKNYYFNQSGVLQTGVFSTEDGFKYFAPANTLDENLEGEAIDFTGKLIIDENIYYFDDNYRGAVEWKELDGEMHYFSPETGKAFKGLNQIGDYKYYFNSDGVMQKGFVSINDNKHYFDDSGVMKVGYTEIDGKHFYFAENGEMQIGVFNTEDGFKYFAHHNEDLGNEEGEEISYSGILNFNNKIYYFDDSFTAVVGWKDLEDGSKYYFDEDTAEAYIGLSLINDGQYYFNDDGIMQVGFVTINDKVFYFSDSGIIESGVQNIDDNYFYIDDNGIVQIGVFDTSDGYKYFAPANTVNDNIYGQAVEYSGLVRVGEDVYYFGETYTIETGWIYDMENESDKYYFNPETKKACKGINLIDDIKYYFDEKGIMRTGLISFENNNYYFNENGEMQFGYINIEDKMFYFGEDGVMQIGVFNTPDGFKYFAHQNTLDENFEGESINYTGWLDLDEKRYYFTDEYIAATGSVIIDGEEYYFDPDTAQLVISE
Experimental: (§2) (FIG. 5A) LHD inhibits TcdB-induced cell rounding. CT26 cells in 12-well plates were exposed to HD or LHD at 750 ng/ml (50 times of TcdB concentration) or nothing for 1 hour, followed by exposure to TcdB at 15 ng/ml for 5 hours. (FIG. 5B) Western-blot analysis of non-glucosylated Rac1 in CT26 cells treated with TcdB in the presence or absence of LHD or HD. TcdB glucosylates Rac1 in cells, serving as a readout for toxin cytotoxicity. Quantitation of Rac1 levels in Western-blot was shown in low panel (*p<0.05). (FIG. 5C) CT26 cells were lysed, and the cytosolic fraction was exposed to TcdB (15 ng/ml) with or without HD at 750 ng/ml (50 times of TcdB concentration) or LHD at 1500 ng/ml (same molecular concentration as HD) or nothing for 1 h followed by Western Blot analysis using a monoclonal antibody that only recognizes non-glucosylated Rac1. β-actin was used as an equal loading control. Quantitation of Rac1 levels in Western-blot was shown in low panel (****p<0.0001).
It was reported that the human defensin protein HD5 (HD) could inhibit TcdB (Giesemann, Guttenberg et al. 2008). Therefore, we evaluated the inhibitory effects of LHD and HD on TcdB. Briefly, CT26 cells in 12-well plates were exposed to LHD, synthesized HD or PBS at 750 ng/ml (50 times of TcdB concentration) for 1 hr, followed by exposure to TcdB at 15 ng/ml for 5 hrs. Total cell lysates were subjected to 12% SDS-PAGE separation, and transferred onto a Nylon membrane. Following blocking for 1 hr at room temperature with 5% skim milk, the membrane was incubated overnight at 4° C. with RAC1 antibody (1:1000, Cat: 610650, BD Biosciences) and β-actin antibody (1:10000, Cat: A5441, Sigma-Aldrich).

[4] = target: Glucosyltransferase (GT) activity of TcdB (Clostridioides difficile, UniProt P18177); assay: TcdB glucosyltransferase activity on Rac1 in CT26 cytosolic fraction; assay type: biochemical, Clostridium difficile; conditions: TcdB 15 ng/ml, 750 ng/ml, 1 hr
Glucosyltransferase (GT) activity of TcdB, sequence (P18177 whole entry): as above
Experimental: as §2
Glucosyltransferase (GT) activity of TcdB was also measured by its ability to glucosylate Rho GTPase Rac1 in cell lysates (Zhang, Shi et al. 2013). CT26 cell pellets were resuspended in a reaction buffer (50 mM HEPES, pH 7.5, 100 mM KCl, 1 mM MnCl2 and 2 mM MgCl2), and lysed by passing through a 30 G needle for 40 times. […]

[5] = tested on: C. difficile strains M120, VPI 10463, CD630, LC693, 1377; assay: Optical drop assay, lytic activity on other clinical epidemic C. difficile strains; assay type: cell-based, Clostridium difficile; conditions: different types of clinical epidemic strains, 200 μg/ml
Source text: C. difficile strains R20291 (ribotype 027), M120 (ribotype 078), VPI 10463 (ribotype 087; ATCC 43255), CD630 (ribotype 012), LC693 (ribotype unknown, ST201), and 1377 (ribotype 012) were used in this study. Strains M120 and VPI 10463 were provided by Dr. Joseph A. Sorg from Texas A&M University. Strains R20291 and CD630 were provided by Dr. Abraham L. Sonenshein from Tufts University. Strains 1377 and LC693 were epidemic clinical strains in China (Li, Liu et al. 2015, Peng, Liu et al. 2017).
as §1

[6] = Clostridioides difficile, read-out: MIC

| Molecule | MIC [1, 6] | lytic activity (drop in OD600) [2] | glucosyltransferase activity of TcdB [4] | other results |
| --- | --- | --- | --- | --- |
| CCc1c(Cl)c(O)c(Cl)c(O)c1C(=O)O[C@H]1[C@H](O)[C@H](OC)[C@H](OC/C2=C\C=C\C[C@H](O)/C(C)=C/[C@H](CC)[C@@H](O[C@@H]3OC(C)(C)[C@@H](OC(=O)C(C)C)[C@H](O)[C@@H]3O)/C(C)=C/C(C)=C/C[C@@H]([C@@H](C)O)OC2=O)O[C@@H]1C [Fidaxomicin, fidaxomicin] | 0.25 µg/mL (≈ 0.236 µM) |  |  |  |
| Cc1ncc([N+](=O)[O-])n1CCO [Metronidazole, metronidazole] | 4 µg/mL (≈ 23.4 µM) |  |  |  |
| CN[C@H](CC(C)C)C(=O)N[C@H]1C(=O)N[C@@H](CC(N)=O)C(=O)N[C@H]2C(=O)N[C@H]3C(=O)N[C@H](C(=O)N[C@H](C(=O)O)c4cc(O)cc(O)c4-c4cc3ccc4O)[C@H](O)c3ccc(c(Cl)c3)Oc3cc2cc(c3O[C@@H]2O[C@H](CO)[C@@H](O)[C@H](O)[C@H]2O[C@H]2C[C@](C)(N)[C@H](O)[C@H](C)O2)Oc2ccc(cc2Cl)[C@H]1O [Vancomycin, vancomycin] | 4 µg/mL (≈ 2.76 µM) |  |  |  |
| HD5: Human alpha-defensin 5 peptide (32 aa), synthesized; SEQ ID NO:3 (ATCYCRTGRCATRESLSGVCEISGRLYRLCCR) [reference compound] |  | moderate lytic activity | significantly inhibited | cell rounding caused by TcdB [3]: decreased cell rounding; non-glucosylated Rac1 in cells (readout of cytotoxicity of TcdB) [3]: inhibited the cytotoxicity |
| B1 |  | potent lytic activities | significantly inhibited | MIC [1]: 1.56 µg/mL; lytic activity (drop in OD600) [5]: potent lytic activities |
